The values that follow come from paper PMC7529705.

This experiment addresses WD-40 repeat-containing protein 5 (WDR5), full-length (human) (UniProt P61964). Description: ITC. (In general: ITC needs no label: the signal is the heat of the interaction.)

Several values for one entry are separate records, joined by “and”; a condition that tells them apart may be missing. Equal entries are not always repeated.

As usually defined, the Kd is a measure of binding affinity in units of concentration. Turning to “Histone H3 1–7aa H3R2me1 peptide (from UniProt P68431 2-8)”, the Kd is 8.1 µM and 9 µM.

“Histone H3 1–7aa H3R2me2s peptide (from UniProt P68431 2-8)”: the Kd is 10.6 µM and 10.2 µM.

“Histone H3 1–7aa unmodified peptide (from UniProt P68431 2-8)”: the equilibrium dissociation constant (Kd) is 11 µM and 11.8 µM.
